According to PMC5145805, “Structural Basis for Selective Interaction between the ESCRT Regulator HD-PTP and UBAP1” (Structure(London, England:1993), 2016):
Where a chain is given by its changes, count along the chain named. Numbers in names are those of the source. Entries after “also recorded” stand apart in the source; their conditions may differ. One block for each molecule: values may come before it.

Experiments:
[1] = test system: FKBP-HD-PTPBro1-CC in HeLa cells; assay: Mitochondrial targeting (FKBP-HD-PTPBro1-CC / Mito-FRB relocalization, immunofluorescence); type: cell-based; settings: rapamycin 1 μM, 3 hr; for relocation to mitochondria with HD-PTPBro1-CC: HeLa
Procedure: Mitochondrial targeting experiments were performed as previously described ([Sato et al., 2015]). HeLa cells were transiently transfected with HD-PTPBro1-CC containing an N-terminal FKBP sequence and a C-terminal myc tag (cloned into pcDNA5), Mito-FRB (a gift from Martin Lowe, Manchester, UK), and either GFP, WT UBAP1-GFP, or F268S UBAP1-GFP (in pEGFP). Mitochondrial relocation of FKBP-HD-PTPBro1-CC-myc was induced by addition of 1 μM rapamycin (Sigma) for 3 hr. Cells were then prepared for immunofluorescence microscopy as above. Mitochondrial relocation of GFP-tagged constructs was scored in three independent experiments (100 cells counted per experiment).

[2] = biological target: T1, HD-PTPBro1-CC (Homo sapiens, UniProt Q9H3S7); assay: Yeast two-hybrid interaction with HD-PTPBro1-CC; type: binding; settings: Matchmaker Gold, each triplicate experiment repeated at least three times
T1 construct: HD-PTPBro1-CC (1–714) was cloned into a pET28a vector with restriction sites Nde1 and Xho1; made in house; host or cells: Escherichia coli BL21(DE3)
T1 sequence (Q9H3S7 1-714): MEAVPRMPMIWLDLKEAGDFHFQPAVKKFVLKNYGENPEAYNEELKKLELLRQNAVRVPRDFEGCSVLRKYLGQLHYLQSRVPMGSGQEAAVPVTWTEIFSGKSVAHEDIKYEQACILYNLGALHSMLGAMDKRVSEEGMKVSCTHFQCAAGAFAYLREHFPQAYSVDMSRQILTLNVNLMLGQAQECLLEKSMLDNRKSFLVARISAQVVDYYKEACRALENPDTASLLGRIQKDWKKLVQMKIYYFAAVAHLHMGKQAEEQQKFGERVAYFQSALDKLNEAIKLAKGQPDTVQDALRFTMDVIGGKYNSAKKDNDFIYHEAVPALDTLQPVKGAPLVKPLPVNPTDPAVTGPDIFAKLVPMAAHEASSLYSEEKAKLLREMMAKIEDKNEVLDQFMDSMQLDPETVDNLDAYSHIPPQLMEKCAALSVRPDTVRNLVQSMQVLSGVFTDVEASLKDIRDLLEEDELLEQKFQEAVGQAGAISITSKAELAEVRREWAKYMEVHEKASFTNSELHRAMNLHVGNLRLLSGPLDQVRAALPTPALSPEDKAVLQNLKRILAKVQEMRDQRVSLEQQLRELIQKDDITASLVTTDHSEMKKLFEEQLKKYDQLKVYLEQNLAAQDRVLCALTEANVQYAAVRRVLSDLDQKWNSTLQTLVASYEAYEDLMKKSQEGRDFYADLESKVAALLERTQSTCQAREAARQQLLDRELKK
Procedure: HD-PTPBro1-CC, HD-PTPBro1-CC F678D, and AlixBro1-V cloned into pGBKT7 were used as described previously ([Stefani et al., 2011]). UBAP1 (122–308) was cloned into pGADT7. Further deletion and missense mutations in UBAP1 as indicated were generated by standard PCR-based mutagenesis. Interactions were tested using the Matchmaker Gold system (Clontech) as described previously ([Stefani et al., 2011]) Each triplicate experiment was repeated at least three times.

[3] = biological target: T2, HD-PTPCC (coiled-coil domain of HD-PTP, residues 363-712) (UniProt Q9H3S7 363-712); assay: SPR; ProteOn XPR36; HD-PTP constructs (50-100 ug/mL) immobilised on an HTE chip, peptides injected (50 uL at 100 uL/min); 25 C; 10 mM HEPES pH 7.4, 150 mM NaCl, 0.05% Tween 20; equilibrium binding model; settings: both partners purified
T2 construct: HD-PTP (His domain protein tyrosine phosphatase; PTPN23), coiled-coil domain, residues 363-712; Form used in the biosensor (SPR) and NMR experiments; immobilisation was on an HTE chip, which probably captures the His tag (surmise); also called CC domain of HD-PTP; WT HD-PTPCC; source: E. coli BL21(DE3), purified (nickel beads, Mono Q anion exchange, Superdex200)
T2 sequence (looked up): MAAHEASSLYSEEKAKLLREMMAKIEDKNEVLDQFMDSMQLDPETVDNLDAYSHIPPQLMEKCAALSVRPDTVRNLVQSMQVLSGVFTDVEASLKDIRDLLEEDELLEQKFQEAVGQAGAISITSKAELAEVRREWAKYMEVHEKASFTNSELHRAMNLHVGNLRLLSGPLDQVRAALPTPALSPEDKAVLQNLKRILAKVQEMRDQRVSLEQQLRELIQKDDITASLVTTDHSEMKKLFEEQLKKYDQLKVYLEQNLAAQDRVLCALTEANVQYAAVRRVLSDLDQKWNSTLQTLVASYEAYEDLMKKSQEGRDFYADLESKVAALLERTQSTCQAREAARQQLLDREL

[4] = biological target: T3, HD-PTP_(Bro1-CC) (residues 1-714), His6-tagged (UniProt Q9H3S7 1-714); assay: as above; settings: both partners purified
T3 construct: HD-PTP (PTPN23), Bro1 and coiled-coil domains, residues 1-714; Precipitated by an anti-His antibody in the co-immunoprecipitation; immobilised on an HTE chip in SPR; also called His6-HD-PTP_(Bro1-CC); source: E. coli BL21(DE3), purified (nickel beads, Mono Q anion exchange, Superdex200)
T3 sequence (looked up): T1 sequence (Q9H3S7 1-714)

[5] = test system: CC domain of HD-PTP; settings: ref Stefani et al., 2011; cited from earlier work
Source text: Specific interaction with UBAP1 is central to the function of HD-PTP ([Stefani et al., 2011]), and their cooperation is essential to regulate integrin signaling and cell migration ([Kharitidi et al., 2015]). Therefore, we aimed to define this interaction at the molecular level. We previously identified the central region of UBAP1 (122–309) as binding to the CC domain of HD-PTP in a yeast two-hybrid (Y2H) screen ([Stefani et al., 2011]). […] In ad ...

Molecule: CO[C@H]1C[C@@H]2CC[C@@H](C)[C@@](O)(O2)C(=O)C(=O)N2CCCC[C@H]2C(=O)O[C@H]([C@H](C)C[C@@H]2CC[C@@H](O)[C@H](OC)C2)CC(=O)[C@H](C)/C=C(\C)[C@@H](O)[C@@H](OC)C(=O)[C@H](C)C[C@H](C)/C=C/C=C/C=C/1C [rapamycin, reference compound]
relocalization of HD-PTPBro1-CC to mitochondria ([1]; FKBP-HD-PTPBro1-CC with mito-FRB): efficient relocalization

Y2H binding to HD-PTP [2]: minimal region for effective binding
Molecule: residues 260–269: minimal region of UBAP1 for effective binding to HD-PTP (VSNIKSLSFP; UniProt Q9NZ09 260-269, looked up, fragment)

B1: UBAP1-GFP: UBAP1 GFP fusion, wild-type (protein)
chain: MASKKLGADFHGTFSYLDDVPFKTGDKFKTPAKVGLPIGFSLPDCLQVVREVQYDFSLEKKTIEWAEEIKKIEEAEREAECKIAEAEAKVNSKSGPEGDSKMSFSKTHSTATMPPPINPILASLQHNSILTPTRVSSSATKQKVLSPPHIKADFNLADFECEEDPFDNLELKTIDEKEELRNILVGTTGPIMAQLLDNNLPRGGSGSVLQDEEVLASLERATLDFKPLHKPNGFITLPQLGNCEKMSLSSKVSLPPIPAVSNIKSLSFPKLDSDDSNQKTAKLASTFHSTSCLRNGTFQNSLKPSTQSSASELNGHHTLGLSALNLDSGTEMPALTSSQMPSLSVLSVCTEESSPPNTGPTVTPPNFSVSQVPNMPSCPQAYSELQMLSPSERQCVETVVNMGYSYECVLRAMKKKGENIEQILDYLFAHGQLCEKGFDPLLVEEALEMHQCSEEKMMEFLQLMSKFKEMGFELKDIKEVLLLHNNDQDNALEDLMARAGAS
modifications: left off: GFP, end not stated, kept
notes: UBAP1 GFP fusion, wild-type
relocation to mitochondria with HD-PTPBro1-CC [1]: relocated to mitochondria; also recorded: translocates to mitochondria

B2: L271A: L271A mutation in UBAP1, Y2H fragment (protein, UniProt Q9NZ09 1-502, looked up, variant L271A)
Ubiquitin-associated protein 1: B1 chain with L271A
Y2H binding to HD-PTP [2]: no obvious effect on binding; also recorded: weaker phenotype

Y2H binding to HD-PTP [2]: abolished binding
B3: F268S: F268S mutation in the FPXL motif of UBAP1, Y2H fragment (protein, UniProt Q9NZ09 1-502, looked up, variant F268S)
Ubiquitin-associated protein 1: B1 chain with F268S

B4: P269A: P269A mutation in UBAP1, Y2H fragment (protein, UniProt Q9NZ09 1-502, looked up, variant P269A)
Ubiquitin-associated protein 1: B1 chain with P269A
Y2H binding to HD-PTP [2]: no obvious effect on binding; also recorded: weaker phenotype

B5: UBAP1-GFP F268S: UBAP1-GFP with F268S mutation (protein)
chain: B1 chain with F268S
modifications: left off: GFP, end not stated, kept
notes: UBAP1-GFP with F268S mutation
relocation to mitochondria with HD-PTPBro1-CC [1]: not

Kd [3]: 66.3 ± 0.35 µM
Kd [4]: 31.9 ± 0.85 µM
Molecule: SNIKSLSFPKLDSDDSNQKT (peptide, UniProt Q9NZ09 261-280, looked up, also called UBAP1C peptide) [UBAP1C (UBAP1 peptide containing residues 261-280)]

B6: UBAP1 (122–309): central region of UBAP1 (122–309) (protein)
chain: ASLQHNSILTPTRVSSSATKQKVLSPPHIKADFNLADFECEEDPFDNLELKTIDEKEELRNILVGTTGPIMAQLLDNNLPRGGSGSVLQDEEVLASLERATLDFKPLHKPNGFITLPQLGNCEKMSLSSKVSLPPIPAVSNIKSLSFPKLDSDDSNQKTAKLASTFHSTSCLRNGTFQNSLKPSTQS
modifications: left off: Gal4 activation domain (from the vector pGADT7), end not stated, kept
Y2H binding to CC domain of HD-PTP [5]: binding
